Source: patent US20130263324, “METHODS FOR PRODUCING A COMPLEX TRANSGENIC TRAIT LOCUS” (E.I. du Pont de Nemours and Company, published 2013)

Assays:
[1] = test system: MHP77-3 meganuclease (engineered I-CreI); assay: cell_activity; conditions: maize embryos
[2] = biological target: T1, MHP14+ meganuclease (engineered I-CreI); assay: cell_activity; maize embryos; conditions: tags: SV40 NLS
T1 chain: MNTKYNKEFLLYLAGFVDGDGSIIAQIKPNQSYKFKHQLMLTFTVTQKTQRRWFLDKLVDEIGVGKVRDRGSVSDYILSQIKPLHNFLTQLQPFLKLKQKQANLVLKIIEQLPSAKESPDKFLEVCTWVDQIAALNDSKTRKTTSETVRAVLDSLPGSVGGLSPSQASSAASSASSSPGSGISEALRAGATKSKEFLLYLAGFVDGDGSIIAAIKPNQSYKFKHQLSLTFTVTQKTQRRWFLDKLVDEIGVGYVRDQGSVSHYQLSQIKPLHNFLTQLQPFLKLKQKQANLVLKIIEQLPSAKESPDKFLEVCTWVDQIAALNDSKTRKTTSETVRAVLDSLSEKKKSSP
Protocol: (§1) Trait gene cassettes can be introduced at other target sites of the complex trait locus through homologous recombination mediated by engineered meganucleases. Engineered meganucleases were designed to direct double strand breaks a two other MHP target sites, MHP55 (SEQ ID NO: 72) and MHP77 (SEQ ID NO: 74) within the complex trait locus. Target site modification was determined using qPCR. The probe sequence for qPCR screening of the MHP55 target site was […] (SEQ ID NO: 115), the MHPTS55_Forward_MGBprimer sequence was […] (SEQ ID NO: 116), and MHP55_reverse_MGB primer was […] (SEQ ID NO: 117). The probe sequence for qPCR of MHP77 target site was […] (SEQ ID NO: 118), the MHPTS77_Forward_MGB primer sequence was […] (SEQ ID NO: 119), and MHP77_reverse_MGB primer was […] (SEQ ID NO: 120). The trait gene cassettes encoding MHP14, MHP55 and MHP77 were introduced into maize somatic embryos via transformation techniques using bombardment and following bombardment, embryos were incubated on 560P (maintenance medium) for 48 hours […].

[3] = biological target: T2, MHP77 meganuclease (engineered I-CreI); assay: cell_activity; maize embryos; conditions: tags: SV40 NLS
T2 chain: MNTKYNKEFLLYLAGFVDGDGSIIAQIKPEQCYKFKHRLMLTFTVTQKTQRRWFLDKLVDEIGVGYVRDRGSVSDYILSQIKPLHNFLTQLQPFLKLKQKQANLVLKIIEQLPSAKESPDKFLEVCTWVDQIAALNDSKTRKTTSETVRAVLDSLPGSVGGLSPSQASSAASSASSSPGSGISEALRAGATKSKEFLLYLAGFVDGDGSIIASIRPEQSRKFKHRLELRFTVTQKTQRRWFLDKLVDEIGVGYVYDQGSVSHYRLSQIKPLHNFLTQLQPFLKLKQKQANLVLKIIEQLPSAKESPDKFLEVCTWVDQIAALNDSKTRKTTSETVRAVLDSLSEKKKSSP
Protocol: as §1

[4] = biological target: T3, MHP55-2 meganuclease (engineered I-CreI); assay: cell_activity; maize embryos; conditions: tags: SV40 NLS
T3 chain: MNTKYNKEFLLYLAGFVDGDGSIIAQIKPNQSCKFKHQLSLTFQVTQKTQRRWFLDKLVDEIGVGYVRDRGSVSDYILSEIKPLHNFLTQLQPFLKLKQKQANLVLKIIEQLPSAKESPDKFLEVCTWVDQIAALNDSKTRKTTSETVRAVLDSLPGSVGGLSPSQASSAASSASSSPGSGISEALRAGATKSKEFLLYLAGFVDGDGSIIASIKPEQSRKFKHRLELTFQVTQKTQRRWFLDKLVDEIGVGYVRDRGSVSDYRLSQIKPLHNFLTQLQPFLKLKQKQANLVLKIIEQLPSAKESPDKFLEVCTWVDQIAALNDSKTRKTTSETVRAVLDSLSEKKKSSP
Protocol: as §1

With “GGGCGGTATGTATGTCATACTA (double strand) [MHP77 target]” the activity (% target site mutation) [1] was 11.

B1: MHP14 target (dsDNA)
DNA 1: CAAACAGATTCACGTCAGATTT
DNA 2: AAATCTGACGTGAATCTGTTTG
Work on B1 yielded an activity [2] of 40 % target site mutation.

B2: MHP77 target (dsDNA)
DNA 1: GGGCGGTATGTATGTCATACTA
DNA 2: TAGTATGACATACATACCGCCC
Molecule B2 has an activity [3] of 1 % target site mutation.

B3: MHP55 target (dsDNA)
DNA 1: CCAACCGTCGTGAGACCTGCCC
DNA 2: GGGCAGGTCTCACGACGGTTGG
With B3 the activity [4] was 5 % target site mutation.
